Paper PMC7367191, “Intrinsic disorder is essential for Cas9 inhibition of anti-CRISPR AcrIIA5”

Target: Cas9;AcrIIA5 (Streptococcus pyogenes;virulent phage …, UniProt Q99ZW2;A0A220GHA5 1-1368;1-140, |)
Experiment: EMSA; 5 mM Mg2+; AcrIIA5 0.4-4 uM supershifts Cas9-sgRNA 0.2 uM; EMSA: 20 mM Tris-HCl pH 7.5, 150 mM KCl, 5 mM MgCl2, 1 mM DTT, 5% glycerol, 25 C, 40 min; sgRNA 200 nM, Cas9 400 nM; 6% PAGE, SYBR Gold
Conditions: protein: recombinant;recombinant; tags: N-terminal His6 (pET28); copies: 1;1; single strand, guide plus sgRNA scaffold hairpins

B1: Cas9 sgRNA (structured_RNA)
RNA: GGAAAUUAGGUGCGCUUGGCGUUUUAGAGCUAGAAAUAGCAAGUUAAAAUAAGGCUAGUCCGUUAUCAACUUGAAAAAGUGGCACCGAGUCGGUGCUU
- binding result: binds
